Assay results published in the supplement of paper PMC10724198.
± gives the standard deviation of the averaged measurements.

Experiments:
Saccharomyces cerevisiae [1] = test: protein stability index of tFT-peptide fusion (C-terminal peptide) (PSI (0-1 scale)); higher = more stable (slower turnover)
Method: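 MPS profiling in S. cerevisiae of the tFT-X12 degron library: putative degron peptides plus stable controls, 12 aa, fused to the C-terminus of a sfGFP-mCherry timer. Cells are FACS-sorted into 8 mCherry/sfGFP bins and deep-sequenced. PSI runs from 0 (unstable) to 1 (stable). Backgrounds are wild type, das1Δ and doa10Δ at 30 °C, and wild type, das1Δ, cdc34-1 and cdc53-1 at 37 °C; 2-3 technical replicates each.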

Saccharomyces cerevisiae [2] = test: protein stability index of tFT-peptide fusion in wild type (PSI (0-1 scale)); higher = more stable (slower turnover); conditions: genetic background: wild type
Saccharomyces cerevisiae [3] = test: protein stability index of tFT-peptide fusion in deletion strain of DOA10 (PSI (0-1 scale)); higher = more stable (slower turnover)
Method: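 MPS profiling in S. cerevisiae of two library types built from selected 12-aa C-degron peptides (IN1, IN2, LN1, LN3, VN2, R1-R5, W1-W3, Atg1 and Rpa12 C-termini): saturation mutagenesis libraries and C-terminal +1 capping libraries (13 aa). Each peptide is fused to the C-terminus of a sfGFP-mCherry timer, after a GGGS linker. Cells are FACS-sorted into 8 mCherry/sfGFP bins and sequenced. PSI runs from 0 (unstable) to 1 (stable), measured once in wild type and in the das1Δ or doa10Δ background.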

Saccharomyces cerevisiae [4] = test: protein stability index of tFT-peptide fusion (C-terminal peptide) (PSI (0-1 scale)); higher = more stable (slower turnover); conditions: genetic background: wild type; temperature: 30 C
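Wherever protein stability index of tFT-peptide fusion (C-terminal peptide) is given: PSI is a weighted mean of sequencing reads over stability bins, variants kept only with over 10 reads, mCherry proximal and sfGFP distal, peptide attached via GGGS linker.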
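Wherever protein stability index of tFT-peptide fusion in deletion strain of DOA10 is given: PSI per variant is the weighted mean of its sequencing read distribution over the sorted stability bins, counting only variants with over 10 reads summed across bins.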
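Wherever protein stability index of tFT-peptide fusion in wild type is given: PSI derived as read-weighted mean over the 8 sorting bins, only variants exceeding 10 total reads kept, mCherry placed adjacent to the peptide and sfGFP distal.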

| Sequence | protein stability index (Saccharomyces cerevisiae [2]) | protein stability index (Saccharomyces cerevisiae [3]) | further results |
| --- | --- | --- | --- |
| RSLRVLLPLYFR | 0.289 | 0.66 | protein stability index (Saccharomyces cerevisiae [1]; genetic background: cdc34-1, temperature: 37 C): 0.082 ± 0.034; protein stability index (Saccharomyces cerevisiae [1]; genetic background: cdc53-1, temperature: 37 C): 0.0762 ± 0.025; protein stability index (Saccharomyces cerevisiae [1]; genetic background: das1 deletion, temperature: 30 C): 0.234 ± 0.029; protein stability index (Saccharomyces cerevisiae [1]; genetic background: das1 deletion, temperature: 37 C): 0.271 ± 0.004; protein stability index (Saccharomyces cerevisiae [1]; genetic background: doa10 deletion, temperature: 30 C): 0.66 ± 0.029; protein stability index (Saccharomyces cerevisiae [1]; genetic background: wild type, temperature: 30 C): 0.234 ± 0.022; protein stability index (Saccharomyces cerevisiae [1]; genetic background: wild type, temperature: 37 C): 0.266 ± 0.043; protein stability index (Saccharomyces cerevisiae [4]): 0.3478 ± 0.0013 |
| FLYMCSVGCWFR | 0.351 | 0.563 |  |
| GLYMCSVTCWFR | 0.265 | 0.327 |  |
| RSLRVDLPLYFR | 0.203 | 0.69 |  |
| AITLPMCPLLLRH | 0.222 | 0.646 |  |
| CCVSLPILLFFR | 0.0702 | 0.606 |  |
| CLVSLPTLLFFR | 0.0585 | 0.663 |  |
| RVTRLDAIYFRIK | 0.615 | 0.694 |  |
| CLVSLKILLFFR | 0.189 | 0.282 |  |
| CLVSLPILLFDR | 0.554 | 0.65 |  |
| AIMLPMCPLLLR | 0.258 | 0.612 |  |
| CLVSLPICLFFR | 0.0838 | 0.593 |  |
| WITLPMCPLLLR | 0.31 | 0.606 |  |
| RSLRVLLPLDFR | 0.666 | 0.723 |  |
| RVTGLDAIYFRI | 0.534 | 0.683 |  |
| RSLRVLLPLIFR | 0.375 | 0.671 |  |
| QVTRLDAIYFRI | 0.346 | 0.693 |  |
| RVTRLDRIYFRI | 0.243 | 0.566 |  |
| GLYMCSTGCWFR | 0.37 | 0.684 |  |
| GLYMVSVGCWFR | 0.176 | 0.38 |  |
| CLVSYPILLFFR | 0.0543 | 0.603 |  |
| CLVSLPVLLFFR | 0.0558 | 0.614 |  |
| CLVSLPIILFFR | 0.0727 | 0.575 |  |
| RVERLDAIYFRI | 0.491 | 0.682 |  |
| VLYMCSVGCWFR | 0.311 | 0.521 |  |
| AITLPMCPLLLRE | 0.488 | 0.634 |  |
| RVTRLDQIYFRI | 0.403 | 0.696 |  |
| GLNMCSVGCWFR | 0.264 | 0.673 |  |
| GLYMDSVGCWFR | 0.521 | 0.727 |  |
